Source: a protein production outcome set (Wang et al. 2014)

Assay: label from the status in PepcDB records
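Also: failed if final PepcDB status was selected cloned or expressed and not failed if soluble or beyond.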

Sequence | protein production
MGREFLDLFEQWAESYDQSVEGYDEQYRDVFAGYDRILSTVADKAGQVVLEFGIGTGNLTKKLLERGKTVYGIEPSAPMRKKAAEKLGERAVIMDGDFLQFPLPPEPIDTIASTYAFHHLTDAEKDEAIAKYSQLLHSGGKIVFADTAFRDKEAFRQTVEAARARGFHDLADDLEREYYTTLDVLASLFANHGFSVSFAQQNAFVWVMEAVKQTTLEHHHHHH | not failed
MTIFYYSFIILALLACLTVSFRIKKQQYLILYLFVIVLLSLLAGLRYDNADYENYLEIFKNPWEVSPDKGFSAFVLIVRWFTTSPIYMFLPVAIIAVSLNISSYRKYSPYLFVSVLFYFVHSFLLKEYVQIRAGLSCAICLYAIRYIEYKSLWKYIACMVIAMSIHMSSIIFFPMFWVYYFMKNKSNSCLMYFLLLSFIIGTLYPFGQVIKAYVPFLDETSRIATYANWDQFNNEIGILTNFTTLKQIILCVLCYIYWTRLKEVISCFSVLYLAYVLSTCWLMLFNDFVIIGARMATFLSVGEPIFFAGFLCLFNKQSRILVTLFFIIISCIIMDVNLHTKNLGEFKLYPLTSLF | failed
MMKNFVCTTCGVQYAASVEEPVSCHICDEERQYVNPKGQSWTTLENLQTDDTYKNEIIKEENGLYSITTKPGFAIGQTAFVVKTESYRLLWDCITYLDETTITKIKELGGLDAIALSHPHYYSTQVEWAETFDVPIYIHEDDKEWVMRPSSRIIYWSGESLQLADGITVHRLGGHFSGGSVLHWEEGNDGKGILLTGDIIQVVADERWVSFMYSYPNLIPLPARKVEEMVNRVKPLQFNRLYNAFHRVVKENANEAVERSAERYIKAIEGKLFHT | failed
MEVIESKWYKKDGASSASIDDVEKLLNTTLPKQYKSFLLWSNGGEGKLGDNYIYIWAIEDVIAYNHDYGIQKYLQKEYWAFGMDGDIGYILHLSDNSIYRVDLGDLDITSIKYIAPSFDDFLGKAIYLNFNKLQNVANNNLTT | not failed
MNGQAKTISASAKGIPQPSNNNFVDFTMSYNGTTKVMSITYGGQTWTQNVSSFIGTNQAMSFSIAASTGAQMNLQQLRNVNFTYTVAQGTVIANYVDEQGNTIAQQETTSGDIDTPYVTSQKTIPGYTFKASNGAATSGNYAANDQTVNYVYTRNQGSIDVTYIDQTTGQTLSKKDLSGGTGDSSNYTTTDTIKSYTDAGYELVSDNYPSGGTVFTDTAQHYVVNLKQKLVVSSEQKQVNETIQYVYEDGSKAADDYNAPPLNFTRSVTTNQVTGEKTYGDWQAQNGDSFGEVVSPTIKGETADQLKIDAISGITANSADIQKKVVYKRNQGTIDVTYIDETTGQVLTKKDLSGGTDDPSNYTTADDIKSYTDKGYELVSDDYPSGGTVFTDEPQHYVVKLKHGLTESTDKKAVNQVIHYVYEGGGEAATDHNATVDFSRTITTDRVTNDKTYGDWTADNGDSFASVTSPVIDGYTADQLKVSEMTGITADTEDISVTVTYTRNQGTIDITYIDQTTGQTLSKKDLSGGTGDDSGYTTADTIKSYTDKGYELISDDYPEDGTKFADDPQHYIVRLKHGLTEVTENKTVNQVIHYVYEGGGEAATDHNATVVFSQTITTDKVTGEKTYSDWTADNGDSFASVTSPVIDGYTADQLKVSEMTGITVDTEDISVTVTYTRNQGTIDVTYIDETTGKILTTKDLSGGTGDDSGYTTADTIKSYTDKGYELVSNDYPEDGTKFADDPQHYIVRLKHGTVVETENKSVNEVIHYVYDNGDKAADNYKATIVFSRTITTDKVTGEKTYSDWTADNGGRFAAVLSPIIKDYIASQLKVDEMTGITVDTADIERIVVYHKVPAGIIVPPVHPDKPSQPSNNQSKIPTAKAVKDSKPTDVLPSTGDSQKSQIVLTLLGIMAVIISPLALLLRRRKQ | failed
MKNIINILDDLTINKIAAGEVVERPSSVVKELIENSIDAGANKISIDIIDGGKSLIKITDNGIGIPSSEVEKSFLRHATSKIKKIDDLYDLYSLGFRGEALASISAVSKLEMTTKTKDEIIGTKIYVEGGKIISKEPIGFTNGTTIIIKDIFFNTPARQKFLKSTHAETINISDLINKLAIGNPNIQFKYTNNNKQMLNTPGDGKLVNTIRSIYGKEITENIIDVEFKCNHFKMNGYIGNNNIYRSNKNLQHIYINKRFVKSKIIIDAITESYKSIIPIGKHAVCFLNIEVDPSCIDVNIHPNKLEIKFEKEQEVYIELRDFLKVKLIHSNLIGKYATYSDKKTQPRIAINSREKSTDYKLRNNDLLESTPKNSNITKGKDEVIEVVTLSSEKPINEFQSVSEVLNASVEDDVKNINYLSEDSANDNIQEEFQVDGIKNEGNYYLGDSIKDSEEEYLCSSKRKFSLYGYSVIGVVFNTYIILSKDDSMYLLDQHAAHERILYERYMEKFYRQDINMQILLDPVVIEVSNVDMLQIENNLELFMKFGFELEIFGNNHIMVRCVPTIFGVPETEKFILQIIDNIEEITSNYDLKGERFASMACRSAIKANDKIYDIEIKSLLEQLEKCENPFTCPHGRPIMVEISKTEIEKMFKRIM | failed
MSMSAQGKKAAESTTSTRPAKLDKQAYEAELKRLQAELVDMQQWVVETGARVVIIMEGRDAAGKGSAIKRMTQYLNPRTCRIEALPAPNSREQGQWYFQRYVEKLPTAGEIVIFDRSWYNRAGVERVMGFCTSQEYRRFLHQAPIFERLLVEDGIMLRKYWFSVSDEEQIARFKSRRNDPLRRWKLSPMDLQSITRWEDYSRAKDEMFVHTDIPSAPWYTVESEDKKRSRINVISHLLSTIPYEKIDRP | failed
MSGQHGHDHSHAVVTQGNAKKLTIALSLTVTFLIVEVVAGFITQSLALLSDAAHMFTDAAALAIALAAIQVAKRPADDKRTFGYQRFEILAALFNASMLFMVAIYILYEAYQRFTHPPEIQSLGMLLVAVIGLIINLISMKILVSSAQDSLNVKGAYLEVLSDALGSVGVILGALVIYFTQWYWVDTLVAVLIGFWVLPRTWILLKQSINILLEGVPEEVDIEKLRDDLLALEGVESIHQLKVWAITSKNVHLTVHLFAPQADRNRLYRTAYEMLSHEHGIAEITLQIEEDECLAHSHTHIEKNHQH | failed
MIYDFCVIGGGIVGLATAMRLLEVYPGCSLVLMEKELSLAQHQTGHNSGVIHAGVYYAPGSFKAKLCARGAELTKSFCTEHSIPYEVCGKLVVASNKDSLARLGSLEERAKQNGLATERLDALELRRREPNVAGEGALFVKSSGIVDYGVVSNSMANVIIQSGGQILLGQTVVSIEEHGNHVNIASEGSSLSAKKLVVCAGLQSDRLATLAGLKLDCQIVPFRGEYYRLSSHLDYSVKHLIYPVPEVGLPFLGIHITRMINGGVTVGPN | failed
MFKVGPIGSKQYYDKSWEEKGRNMISIFGILVHDGHVKANIQVRLNDDEYVTGLSGIFWERKVTSLTFHTNQGKHGPFCNGTGYSSSYMADYKKEIDVKIRDRREFGGFFGSFDDEFDGLTSIGIYVYPTYDNKPTLNQAWDPLYAFAHNQIPTIADGIPVMHIRYKPKLKDRIFSKLDFKRAMLCLIKVFLD | failed
MAEKQYDFTHVPKRQGNSIKWGVLKEKELPMWIAEMDFKIAPEIMASMEEKLKVAAFGYESVPAEYYKAVADWEEIEHRARPKEDWCVFASGVVPAISAMVRQFTSPGDQILVQEPVYNMFYSVIEGNGRRVISSDLIYENSKYSVNWADLEEKLATPSVRMMVFCNPHNPIGYAWSEEEVKRIAELCAKHQVLLISDEIHGDLVLTDEDITPAFTVDWDAKNWVVSLISPSKTFNLAALHAACAIIPNPDLRARAEESFFLAGIGEPNLLAIPAAIAAYEEGHDWLRELKQVLRDNFAYAREFLAKEVPEVKVLDSNASYLAWVDISALGMNAEDFCKYLREKTGLIISAGNGYRGNGHEFVRINLACPKELVIDGMQRLKQGVLNLNN | not failed
LTRSNISYFSIGSGTPIIFLHGLSLDKQSTCLFFEPLSNVGQYQRIYLDLPGMGNSDPISPSTSDNVLETLIEAIEEIIGARRFILYGHSYGGYLAQAIAFHLKDQTLGVFLTCPVITADHSKRLTGKHINILEEDINPVENKEYFADFLSMNVIINNQAWHDYQNLIIPGLQKEDKTFIDQLQNNYSFTFEEKLKNINYQFPFKIMVGRNDQVVGYQEQLKLINHNENGEIVLLNRTGHNLMIDQREAVGFHFDLFLDELNSN | failed
MTRAINDPGNEDPGSLLETDADALLGGAAAQAPEERCRLAAQACIRACERYLALCTESSREQRQHAGDCADLCRLAALLLERRSPWAPAACELAARYALACAERCDGDEPLERECAGACRRFVEACRPLLPALEHHHHHH | not failed
MQAVALENDVIRRFASGQMFPMAKLVLETAFQPIVEATTGTIFGYESLMRGHDRLGFSSPLALLDQAAADGELKAFEQMLASRALAKFSTLPDFSSATLFLNLDVRLIPHGDVILDKLVGHLARAGIPASSICFELSERFDNTSVPEFTSLIARMRKEGFKLAIDDFGAGHGEMKLLCDFPLDYLKIDRHFISGIDHLPRKQHLVRNIVNIAHVLGVRVIAEGIETEAEFLSCREFGVDLVQGWLIAKPTVFTSELPESFPHLNRVGVARRNSQTLDEILIRREIERLPTVFEHDSVDSVFELFRRNPQQAFFPVLNANGEPRGVINEYHLKEYIYRPFGRDLLKNKIYERTISHFVDPAPIVGLDADADQLMNMFASMGGMGGSACIILTENMRYAGIVSAASLIKVINEKQLKMAQDQNPLTALPGNRAIGGFIADSCSDGDETRFFCYCDFDNFKPFNDKYGFNAGDHAITLFSALMRRYFFAGDCFLGHIGGDDFFIGVRDWSVEELMEILERLLSDFHDDVAGLYSDEDRAAGCMKGQDRNGNERDFALLRCSIGVLTLPKGSIIANPERIGSEIASVKAAAKENEGGLVVRVFGEANLEHHHHHH | failed
MATEPPKIVWNEGKRRFETEDHEAFIEYKMRNNGKVMDLVHTYVPSFKRGLGLASHLCVAAFEHASSHSISIIPSCSYVSDTFLPRNPSWKPLIHSEVFKSSI | not failed
MRTLNTSAMDGTGLVVERDFSVRILTACFLSLLILSTLLGNTLVCAAVIRFRHLRSKVTNFFVISLAVSDLLVAVLVMPWKAVAEIAGFWPFGSFCNIWVAFDIMCSTASILNLCVISVDRYWAISSPFRYERKMTPKAAFILISVAWTLSVLISFIPVQLSWHKAKPTSPSDGNATSLAETIDNCDSSLSRTYAISSSVISFYIPVAIMIVTYTRIYRIAQKQIRRIAALERAAVHAKNCQTTTGNGKPVECSQPESSFKMSFKRETKVLKTLSVIMGVFVCCWLPFFILNCILPFCGSGETQPFCIDSNTFDVFVWFGWANSSLNPIIYAFNADFRKAFSTLLGCYRLCPATNNAIETVSINNNGAAMFSSHHEPRGSISKECNLVYLIPHAVGSSEDLKKEEAAGIARPLEKLSPALSVILDYDTDVSLEKIQPITQNGQHPT | failed
MSSNECFKCGRSGHWARECPTGGGRGRGMRSRGRGFQFVSSSLPDICYRCGESGHLAKDCDLQEDACYNCGRGGHIAKDCKEPKREREQCCYNCGKPGHLARDCDHADEQKCYSCGEFGHIQKDCTKVKCYRCGETGHVAINCSKTSEVNCYRCGESGHLARECTIEATA | failed
